Experimental findings from PMC4373776, “A Unique HMG-Box Domain of Mouse Maelstrom Binds Structured RNA but Not Double Stranded DNA” are described below.

Data set [1] has as its target T1, SRY HMG-box (Mus musculus (129S4), UniProt Q05738 2-86). Briefly: EMSA; five complexes; 10 mM potassium phosphate pH 7.5, 50 mM KCl, 5% glycerol, 1 mM TCEP, 0.1 mg/ml BSA, 2.5 mM MgCl2, ~1 nM substrate, room temperature 30-60 min; native PAGE in ice bath. Particulars: protein: recombinant; tags: GST removed by PreScission (pGex6P2); label: 5' 32P; four-way junction of 4 strands. In general terms: Mobility shift assays separate free from complexed probe on a gel.

The next data set has as its target T2, MAEL HMG-box Q16A (Mus musculus, UniProt Q8BVN9 2-86, Q16A).
T2 sequence: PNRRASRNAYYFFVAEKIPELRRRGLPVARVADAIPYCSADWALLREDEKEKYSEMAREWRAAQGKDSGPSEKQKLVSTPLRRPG
The experiment in a line: EMSA; same as wild type; 10 mM potassium phosphate pH 7.5, 50 mM KCl, 5% glycerol, 1 mM TCEP, 0.1 mg/ml BSA, 2.5 mM MgCl2, ~1 nM substrate, room temperature 30-60 min; native PAGE in ice bath. Particulars: protein: recombinant; tags: GST removed by PreScission (pGex6P2); label: 5' 32P; four-way junction of 4 strands.

Data set [2] deals with T3, HMGB1a (HMGB1 box A) (Mus musculus, UniProt P63158 2-86).
T3 sequence: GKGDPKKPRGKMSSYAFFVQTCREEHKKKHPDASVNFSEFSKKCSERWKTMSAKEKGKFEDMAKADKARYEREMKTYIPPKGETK
Briefly: EMSA; two complexes; 10 mM potassium phosphate pH 7.5, 50 mM KCl, 5% glycerol, 1 mM TCEP, 0.1 mg/ml BSA, 2.5 mM MgCl2, ~1 nM substrate, room temperature 30-60 min; native PAGE in ice bath. The settings on record: protein: recombinant; tags: GST removed by PreScission (pGex6P2); label: 5' 32P; four-way junction of 4 strands.

The next data set has as its target T4, MAEL HMG-box R25A (Mus musculus, UniProt Q8BVN9 2-86, R25A).
T4 sequence: T2 sequence with A15Q, R24A
The experiment in a line: EMSA; 10 mM potassium phosphate pH 7.5, 50 mM KCl, 5% glycerol, 1 mM TCEP, 0.1 mg/ml BSA, 2.5 mM MgCl2, ~1 nM substrate, room temperature 30-60 min; native PAGE in ice bath. Particulars: protein: recombinant; tags: GST removed by PreScission (pGex6P2); label: 5' 32P; four-way junction of 4 strands.

The target in a further data set is T5, MAEL HMG-box R31A (Mus musculus, UniProt Q8BVN9 2-86, R31A).
T5 sequence: T2 sequence with A15Q, R30A
The data set is described as above. The settings on record: protein: recombinant; tags: GST removed by PreScission (pGex6P2); label: 5' 32P; four-way junction of 4 strands.

In a further data set the target is T6, MAEL HMG-box R23A (Mus musculus, UniProt Q8BVN9 2-86, R23A).
T6 sequence: T2 sequence with A15Q, R22A
The data set is described as above. The settings on record: protein: recombinant; tags: GST removed by PreScission (pGex6P2); label: 5' 32P; four-way junction of 4 strands.

A further data set deals with T7, MAEL HMG-box R8A (Mus musculus, UniProt Q8BVN9 2-86, R8A).
T7 sequence: T2 sequence with R7A, A15Q
The data set is described as above. Particulars: protein: recombinant; tags: GST removed by PreScission (pGex6P2); label: 5' 32P; four-way junction of 4 strands.

Data set [3] addresses T8, MAEL HMG-box (Mus musculus, UniProt Q8BVN9 2-86).
T8 sequence: T2 sequence with A15Q
The experiment in a line: EMSA; 2.5 mM Mg2+; binding incomplete; 10 mM potassium phosphate pH 7.5, 50 mM KCl, 5% glycerol, 1 mM TCEP, 0.1 mg/ml BSA, 2.5 mM MgCl2, ~1 nM substrate, room temperature 30-60 min; native PAGE in ice bath. Particulars: protein: recombinant; tags: GST removed by PreScission (pGex6P2); label: 5' 32P; four-way junction of 4 strands.

The target in data set [4] is T3, HMGB1a (HMGB1 box A). Briefly: EMSA; multiple intermediate complexes; 10 mM potassium phosphate pH 7.5, 50 mM KCl, 5% glycerol, 1 mM TCEP, 0.1 mg/ml BSA, 2.5 mM MgCl2, ~1 nM substrate, room temperature 30-60 min; native PAGE in ice bath. Particulars: protein: recombinant; tags: GST removed by PreScission (pGex6P2); label: 5' 32P; four-way junction of 4 strands.
For data set [5], the target named is T8, MAEL HMG-box. Briefly: EMSA; no appreciable binding; 10 mM potassium phosphate pH 7.5, 50 mM KCl, 5% glycerol, 1 mM TCEP, 0.1 mg/ml BSA, 2.5 mM MgCl2, ~1 nM substrate, room temperature 30-60 min; native PAGE in ice bath. Particulars: protein: recombinant; tags: GST removed by PreScission (pGex6P2); label: 5' 32P; folded.
Data set [6] addresses T8, MAEL HMG-box. The experiment in a line: EMSA; 10 mM potassium phosphate pH 7.5, 50 mM KCl, 5% glycerol, 1 mM TCEP, 0.1 mg/ml BSA, 2.5 mM MgCl2, ~1 nM substrate, room temperature 30-60 min; native PAGE in ice bath. The settings on record: protein: recombinant, tags: GST removed by PreScission (pGex6P2), label: 5' 32P.
The target in data set [7] is T8, MAEL HMG-box. The experiment in a line: EMSA; complex from 0.5 uM protein; cooperative; fully bound; 10 mM potassium phosphate pH 7.5, 50 mM KCl, 5% glycerol, 1 mM TCEP, 0.1 mg/ml BSA, 2.5 mM MgCl2, ~1 nM substrate, room temperature 30-60 min; native PAGE in ice bath. Particulars: protein: recombinant; tags: GST removed by PreScission (pGex6P2); label: 5' 32P; folded.

Data set [8] addresses T1, SRY HMG-box. Briefly: EMSA; 2.5 mM Mg2+; average of titration and cold competition; 10 mM potassium phosphate pH 7.5, 50 mM KCl, 5% glycerol, 1 mM TCEP, 0.1 mg/ml BSA, 2.5 mM MgCl2, ~1 nM substrate, room temperature 30-60 min; native PAGE in ice bath. Particulars: protein: recombinant; tags: GST removed by PreScission (pGex6P2); label: 5' 32P; blunt.
Data set [9] has as its target T3, HMGB1a (HMGB1 box A). The experiment in a line: EMSA; 10 mM potassium phosphate pH 7.5, 50 mM KCl, 5% glycerol, 1 mM TCEP, 0.1 mg/ml BSA, 2.5 mM MgCl2, ~1 nM substrate, room temperature 30-60 min; native PAGE in ice bath. The settings on record: protein: recombinant; tags: GST removed by PreScission (pGex6P2); label: 5' 32P; blunt.

Substitutions are numbered along the chain they refer to.

T1 sequence (Q05738 2-86): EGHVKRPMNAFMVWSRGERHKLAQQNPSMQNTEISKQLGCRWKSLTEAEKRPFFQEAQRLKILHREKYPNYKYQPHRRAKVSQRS

B1: DNA 4WJ (structured_DNA)
DNA 1: CCGACAGGACTGTCAACCAGGTAATATACCACTTGCGG
DNA 2: CCGCAAGTGGTATATTACCTGGTACGCGTTCACGG
DNA 3: CCGTGAACGCGTGGTGCGAATCGG
DNA 4: CCGATTCGCACCTGACAGTCCTGTCGG
B1: the binding result is reported as “binds” with SRY HMG-box [1]; “binds” in the data set with MAEL HMG-box Q16A; “binds” with HMGB1a (HMGB1 box A) [2]; “no binding” with MAEL HMG-box R25A; “no binding” with MAEL HMG-box R31A; “no binding” with MAEL HMG-box R23A. Also, in the data set with MAEL HMG-box R8A, the binding result is “no binding”.

B2: RNA 4WJ (structured_RNA)
RNA 1: CCGACAGGACUGUCAACCAGGUAAUAUACCACUUGCGG
RNA 2: CCGCAAGUGGUAUAUUACCUGGUACGCGUUCACGG
RNA 3: CCGUGAACGCGUGGUGCGAAUCGG
RNA 4: CCGAUUCGCACCUGACAGUCCUGUCGG
modifications: 5'-terminal dC and 3'-terminal dG on each strand
Turning to B2, in the data set with MAEL HMG-box [3], the Kd (commonly the concentration at which binding is half-saturated) amounted to 638 nM. Moreover, the binding result in the data set with HMGB1a (HMGB1 box A) [4] was “binds”; with MAEL HMG-box R8A it was “no binding”.

B3: chr2 noPeak 177-nt RNA (structured_RNA)
RNA: GGGGGGGAUGAAAAAUUCAUCUAAUUUAGUACAAUGUAAAUAUAAAGAGUUUGGAAAUUUUUGAAAACUUGAGGUCAUGUUAAAAAAGCAACAACUCUCCUUUUAGAUUGUCCUAUUUGUGUCUUGAAAUUCCUAUGCUGUUCUAAACCCAUUUGGUAUGUAUGCUCCUGCCCAAAC
In the case of B3, the binding result with MAEL HMG-box [5] is given as “no binding”.

As for GGGAAAGGGUUAGGGUUAGGGUUAGGGAA (ssRNA) [ssRNA], the binding result in the data set with MAEL HMG-box [6] is listed as “no binding”.

B4: L1_Md_F2 277-nt RNA (structured_RNA)
RNA: GGGUUCUGGCUAUUAUAAAUAAGGCUGCUAUGAACAUAGUGGAGCAUGUGUCCUUCUUACCGGUUGGGGCAUCUUCUGGAUAUAUGCCCAGGAGAGGUAUUGCUGGAUCCUCCGGUAGUACUAUGUCCAAUUUUCUGAGGAACCACCAGACUGAUUUCCAGAGUGGUUGUACAGCUUGCAAUCCCACCAGCAAUGAAGGCGUGUUCCUCUUUCUCCACAUCCACGCCAGCAUCUGCUGUCACCUGAAUUUUUGAUCUUAGCCAUUCUGACUGGUGUG
Take B4: the binding result with MAEL HMG-box [7] was “binds”.

Regarding GCGCAACAAUGCCGG (structured_RNA) [RNA hairpin 1], in the data set with MAEL HMG-box [6] (hairpin), the binding result was “no binding”.

B5: methylated dsDNA 16 bp (dsDNA)
DNA 1: CAGTCGACGTCGTGAC
DNA 2: GTCACGACGTCGACTG
modifications: 5-methyl-dC at position 8 of each strand
For the molecule B5, the binding result with MAEL HMG-box [6] (blunt) is listed as “no binding”.

For AAAGGGTTAGGGTTAGGGTTAGGGAA (ssDNA) [ssDNA (25-nt)], the binding result with MAEL HMG-box [6] is given as “no binding”.

For GGGACCAGAAGGUCCCG (structured_RNA) [RNA hairpin 2], the binding result with MAEL HMG-box [6] (hairpin) is given as “no binding”.

B6: dsDNA-SRY 15 bp (dsDNA)
DNA 1: GCGCAACAATGCCGG
DNA 2: CCGGCATTGTTGCGC
Turning to B6, the Kd with SRY HMG-box [8] was approximately 12 nM. Further, the binding result in the data set with MAEL HMG-box [6] (blunt) and with HMGB1a (HMGB1 box A) [9] was “no binding” throughout.
